Data reported in paper doi:10.1101/2025.08.04.668577 (bioRxiv, 2025).

Molecular target: E2 ectodomain of HCV strain 1a154 (Hepatitis C virus genotype 1a, isolate …, strain)
Experiment: ELISA

binding result: binds
B1: HEPC108 IgG (antibody, V domains shown)
VH: QVQLVQSGAEVKKPGSSVKVSCKASGDTFSSSAISWVRQAPGQGLEWMGGSIPIFGATKYAQKFQGRVTITTDKSTSTAYMELSSLRFEDTAVYYCARASIVNISGFVRFRFDSWGQGTLVTVSS
VL: DIQMTQSPSSLSASVGDRVTITCQASQDISNYLNWYQQKPGKAPKLLIYDVSNLEIGVPSRFSGSGSGTEFTLTINSLQPEDLATYFCQHYDDVPPVYTFGQGTSLEIK
